{"source": "the nanobody polyreactivity screen of Harvey et al. (2022)", "data": [{"test": "yeast display, Sf9 membrane polyspecificity reagent, FACS + sequencing; frameworks hold sequencing errors", "method_in_brief": "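After 36–48 hours of galactose induction, yeast (Saccharomyces cerevisiae BJ5465) displaying a synthetic nanobody library were stained at 4 °C for 1 hour with 10% biotinylated, detergent-solubilized Sf9 membrane reagent. Streptavidin microbeads enriched the stained cells before FACS sorting into low and high (top ~1%) gates on anti-HA and streptavidin fluorescence. Each clone's polyreactivity label reflects its gate of origin.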", "values": [{"sequence": "QVHLVDSGGGLVQAGGSLRLSCAASGSTIKTYTKGWYRQAPGKERELVAGITSGVSTSYADSVKGRFTISRDNAKNTVYLQMNSLKPEDTAVYYCNADAYLVIYFYTVRDYGYDYWGQGTQVTVSS", "polyreactivity (PSR sort gate)": "low polyreactivity"}, {"sequence": "QVHLVDSGGGLVQAGGSLRLTCAASGITFYRYAMGWYRQAPWKERELVAAITGGGRTYYADSVKGRFTISRDNAKNTVYLQMNSLKPEDTAVYYCNVRTLHSVRGYDYWGQGTQVTVSS", "polyreactivity (PSR sort gate)": "high polyreactivity"}, {"sequence": "QVHLVESAGCLVQAGGSLRLSCAASGSIIYLYAMGWYRQAPGKERELVAAISSGGSTNYADSVKGRFTISRDNAKNSVYLQMNSLKPEDTAVYYCAATLPGWYNEYDSWGQGTQVTVSS", "polyreactivity (PSR sort gate)": "low polyreactivity"}, {"sequence": "QVHLVESDGGLVQAGGSLRLSCAASGIIFGYYVMGWYRQAPGKERELVASITSGGSTNYADSVKGRYTISRDNAKNTVYLQMNSLIPEYTAVYYCATDEPVGRYKHNYYWGQGTKVTVSS", "polyreactivity (PSR sort gate)": "low polyreactivity"}, {"sequence": "QVHLVESGAGLVQAGGSLRLSCAASGSVFPVNAMGWYRQAPGKERELVAAISGSSGSTYYADSVKGRFTISRDNAKNTVYLQMNSLKPEDTAVYYCAKRGYGYGDGAYYYWGQGTQVTVSS", "polyreactivity (PSR sort gate)": "low polyreactivity"}, {"sequence": "QVHLVESGGALVQAGASLRLSCAASGFTYGLYSMGWYRQAPGKERELVAVISSSGGSTYYADSVKGRFTISRDNAKNTVYLQMNRLKPEDTAVYYCAAEWLDYKFDVSYDYWGQCTQVTVSS", "polyreactivity (PSR sort gate)": "low polyreactivity"}, {"sequence": "QVHLVESGGALVQAGGSLRLSCAASGLTFVTNSMGWYRQAPGKERELVAAISLGGGSTYYADSVKGRFTISLDNAKNTVYLQMNSLKPEDTAVYYCAAVPGWVRQAVGWVLSLLDYCGQGTQVTVSS", "polyreactivity (PSR sort gate)": "low polyreactivity"}, {"sequence": "QVHLVESGGALVQAGGSLRLSCAASGRTFGIYAMGWYRQAPGKERELVATISWRGGSTYYADSVKGRFPISRDNAKNTVYLQMNSLKPEDTAVYYCAAGYYPYWGQGTQVTVSS", "polyreactivity (PSR sort gate)": "low polyreactivity"}, {"sequence": "QVHLVESGGALVQAGGSLRLSCAASGSTFGGYAMGWYRPAPWKERELVAAITRSGGTTYYADSVKGRFTISRDNAKNTVYLQMNSLKPEDTAVYYCAAQGRRRPHQDAPYDYWGQGTQVTVSS", "polyreactivity (PSR sort gate)": "high polyreactivity"}, {"sequence": "QVHLVESGGCLVQAGCSLRLSCAASGRTFGWNVMGWYRQAPGTERELVAAISGSGGSTYYADSVKGRFTISRDNAKNTVYLQMNSLKPEDTAVYYCAALYGPGREYDYWGQGTQVTVSS", "polyreactivity (PSR sort gate)": "low polyreactivity"}, {"sequence": "QVHLVESGGCLVQAGGSLRLSCAASGFIFPWYAMGWYRQAPGKERELVAAISSSGGRTYYADSVKGRFTISRDNAKNTVYLQMNSLKPEDTGVYYCNVAYGLSQVYRYNYWGQGSQVTVSS", "polyreactivity (PSR sort gate)": "high polyreactivity"}, {"sequence": "QVHLVESGGCLVQAGGSLRLSSAASASIFYYNTMGWYIQAPGKERELVATNSSDGGTNYADSVKGRFTISRDNAKNTVYLQMNSLKPEDTAVYYCAAAVSPYSYWPGFDYWGQGTQVTVSS", "polyreactivity (PSR sort gate)": "low polyreactivity"}, {"sequence": "QVHLVESGGGEVQAGGSLRLSCAASGRTFYNYAMGWYRQAPGKERELVASIRKNGGSTYYAYSVKGRFSISRDNAKNTVYLQMNSLKPEDTAVYYFAARYWGISRIFPSKYDYWGQGTQVTVSS", "polyreactivity (PSR sort gate)": "high polyreactivity"}, {"sequence": "QVHLVESGGGFVQAGGSLRLSCAASGSIFVINGMGWYRQAPGKERELVAAISSRGGDTYYADSVKGRFTISRDNAKNTVYLQMNSLKPEDTAVYYCNARYYTSYDYWGQGTKVTVSS", "polyreactivity (PSR sort gate)": "low polyreactivity"}, {"sequence": "QVHLVESGGGIDQAGGSLRLSCAASGSTFTNNTMGWYRPAPGKERELVAGITKSGGSTYYADSVKGRFTISRDNAKKTVYLQMNSLKPEDTAVYYCATSTSRRYGSRHNYWGQGTQVTVSS", "polyreactivity (PSR sort gate)": "high polyreactivity"}, {"sequence": "QVHLVESGGGIVQAGGSLRLSCAASGRTFWNYAMRWYRQAPGKERELVAVIRFSDGSTYYADSVKGRFTISRDNAKNTVYVQMNSLKPEDTAVYYCAAKGQRRWGSGFDYWGQGTQVTVSS", "polyreactivity (PSR sort gate)": "low polyreactivity"}, {"sequence": "QVHLVESGGGIVQAGGSLRLSCAASGSIFNYYAMGWYRQAPGKETELVAAITWSGGRTYYADSVKGRFTISRDNAKNTVDLQMNSEKPEDTAVYYFATATVRFRVILFSPRMDDWGQGSQVTVSS", "polyreactivity (PSR sort gate)": "low polyreactivity"}, {"sequence": "QVHLVESGGGLDQAGGSLRLSCAASGSTFSGYAMGWYRQAPGKERELVAAISSTGRTYYADSVKGRFTISRDNAKNTVYLQMNSLIPEDTALYYCAAKRYTVYGHKYEYWGQGTQVTVSS", "polyreactivity (PSR sort gate)": "high polyreactivity"}, {"sequence": "QVHLVESGGGLDQAGGSLRLSSASSGRIIVRNAMGCYRQAPGKERELVADISSSGGRTYYADSVKGRFTISRDNAKNTVYLQMNSLKPEDTAVYYCAASSSNNEYDYWGQGTQETVSS", "polyreactivity (PSR sort gate)": "high polyreactivity"}, {"sequence": "QVHLVESGGGLVHAGGSLRLSCAASRSTFRNYAMGWYRQAHGKEREFVATINWIGGTTYYADSVKGRFTLSRDNAKNTVDLQMNSLKPVDTGVYYCAAQFDYYPWGGYWGQGTQVTVSS", "polyreactivity (PSR sort gate)": "high polyreactivity"}, {"sequence": "QVHLVESGGGLVKAGGSLRLSCAASGGTIFVYMGWYRQDPGKETELVADISGSGGGTYYADSVKGRFTISRDNAMNTVYLQMNSLKPEDTAVYYCAAYYGHTYNGYYYWGQGTQVTVSS", "polyreactivity (PSR sort gate)": "low polyreactivity"}, {"sequence": "QVHLVESGGGLVKAGGSLRLSCAASGNTFLWYAMGWYRQAPGKERELVAAITYSGGSTYYADSVKGRFTISRDNAKNTVYLQMNSLKPEYTPVYYCAAVGSYLAGYQFDYWGQGTQVNVSS", "polyreactivity (PSR sort gate)": "low polyreactivity"}, {"sequence": "QVHLVESGGGLVKAGGSLRLSCAASGRTFAQYVMGWYRQAPGKERELVAAITWSGGSSYYADSVKGRFTISRDNAKNTVYLQMNSLKPEDTALYYCAVKGAGGPKDDYWGQGTQVTVSS", "polyreactivity (PSR sort gate)": "high polyreactivity"}, {"sequence": "QVHLVESGGGLVQAGCSLRLICAASGRIFTLYAMGWYRQAPGTEMEFVAAINRGGSTNYADSVKGRFTISRDNAKNTVYLQMNSLKPEVTAVYYCAAITTSRFRTYSYDYWGQGTKVTVSS", "polyreactivity (PSR sort gate)": "high polyreactivity"}, {"sequence": "QVHLVESGGGLVQAGCSLRVSCAASGRIFLYTGKGWSRQAAGKERELVAAISSGGSTYYADSVKGRFTISRDNAKNTVYLQMNSLKPEDTAVYYCAKEGHVVIFYIGQYELDFWGQGTQVTVSS", "polyreactivity (PSR sort gate)": "low polyreactivity"}, {"sequence": "QVHLVESGGGLVQAGGCLRLICAASGSIFVPYAMGWYRQAPVKERELVAAISRGGDTNYADSVKGRFTISRDNAKNTVYLQMKSLKPEDTAVYYCAKSGYGNRGFDYWGQGTQVSVSS", "polyreactivity (PSR sort gate)": "low polyreactivity"}, {"sequence": "QVHLVESGGGLVQAGGILRLSCAAYGSTFKSYAMGWYRLAPGKERELVAAISSSTGRTYYADSVKGRFTISLDYAKNTVYLQMNSMKPEDTAVYYCNAVHRYERDYCGQGTQVTVSS", "polyreactivity (PSR sort gate)": "high polyreactivity"}, {"sequence": "QVHLVESGGGLVQAGGRLRLSCAASGSIFFRYAMGWYRQAPGKERELVAAINSRGGRTYYADSVKGRFTISRDNAKNTVYLQMNSLKPEDTAVYYCAAKGYWAKGGKTYGGYDYWGQGTQVTGSS", "polyreactivity (PSR sort gate)": "high polyreactivity"}, {"sequence": "QVHLVESGGGLVQAGGSHRLSCAASGSISFIYAMGWYIQAPGKERELVAAITSSGGSTYYADSVKGRFTISRDNAQNTVYLQMNSLKPDDTAVYYCAAERWTSRHYSGNDYWGQGTQVTVSS", "polyreactivity (PSR sort gate)": "low polyreactivity"}, {"sequence": "QVHLVESGGGLVQAGGSHSLSCAASGITFPLYVMGSYRQAPGKERELVAAISASGGSTYADSVKGRFTISRDNAKNTVYLQMNSLKPEDTAVYYCNAAVYVGYEYDYWGLGTQVTVSS", "polyreactivity (PSR sort gate)": "low polyreactivity"}, {"sequence": "QVHLVESGGGLVQAGGSLGLSCAASGFTFTRNTMGWYRQAPGKERELVAAITRGGSTNYADSVKGRFTISRDNAKNTVYLQMNSLKPEDTAVYYCNKGRNVVLVRTADDYWGQGTQVTVSS", "polyreactivity (PSR sort gate)": "low polyreactivity"}, {"sequence": "QVHLVESGGGLVQAGGSLLLSCAASGFTFRTNAMGWNRQAPGKERELVAVISRRGGSTYYADSVKGRFTISRDNAKNTVYIQMNSLKPEDTAVYYCNAGDGTVGRTYYRSYDYWGQGTQVTVSS", "polyreactivity (PSR sort gate)": "high polyreactivity"}, {"sequence": "QVHLVESGGGLVQAGGSLPLSCAASGRTFIYNTMGWYRPAPGKERELVAAITRNGGSTNYADSVKGRFTISRDNAKNTVYLQMNSLKPEDTAVYYCAAKYIRFARSRDYWGQGTQVTVSS", "polyreactivity (PSR sort gate)": "high polyreactivity"}, {"sequence": "QVHLVESGGGLVQAGGSLRLICAASGRILTFNAMGWYRQAPGKERELVAGINWSGDSTYYADSVKGRFTISRDNAKNTVYLQINSLKPEDTAFYYCTKYSYKAHFNYWGQGTQVTVSS", "polyreactivity (PSR sort gate)": "low polyreactivity"}, {"sequence": "QVHLVESGGGLVQAGGSLRLICAATGFIFGSYAMGWYRQAPGKERELVAAINWSGGNTYYADSVKGRFTISRDNEKNTVYLQMNSLKPEDTAVYYCAAQYVTSRFDYWGQGTQVTVSS", "polyreactivity (PSR sort gate)": "high polyreactivity"}, {"sequence": "QVHLVESGGGLVQAGGSLRLSCAAAGSTVVYNVMGWYRQAPGKERELVAAIRWRGGSTYADSVKGRFTISRDNAKKTVYLQMNSLKPEDTAVYYCAAGIPRYWYAGHYDYWGQGTQVTVSS", "polyreactivity (PSR sort gate)": "low polyreactivity"}, {"sequence": "QVHLVESGGGLVQAGGSLRLSCAASGFIFFYYAMGWYRQAPGTERELVAAISRSGGSTYYADSVKGRFTISRDNAKNTVYFQMNSLKPEDTAVYYCAAVWPVIYGMDYWGQGTQVTVSS", "polyreactivity (PSR sort gate)": "high polyreactivity"}, {"sequence": "QVHLVESGGGLVQAGGSLRLSCAASGFIFGYNARGWYRQAPAKERELVAAINWSGGRTYYADSVKGRFTISRDIAKNTVYLQMNSLKPEVTAVSYCNADGSRRYNYWGQGSQVTVSS", "polyreactivity (PSR sort gate)": "low polyreactivity"}, {"sequence": "QVHLVESGGGLVQAGGSLRLSCAASGFIFNYYAMGWYRQAPGKERELVAAISWRGTSTYYADSVKGRFTISRDNAKNTVYLQMNSLKPEDNAVYYCAAAKYPYVRRAWNFVGYDYWGQGTQVTVSS", "polyreactivity (PSR sort gate)": "high polyreactivity"}, {"sequence": "QVHLVESGGGLVQAGGSLRLSCAASGFIFYSNSMGWYRPAPGKERELVAAISSGGGSTRYADSVKGRFTISRDNAKNTVYLQMNSLKPEDTAVYYCASRDGYTIFRSTRYYYWGEGTQVTVSS", "polyreactivity (PSR sort gate)": "high polyreactivity"}, {"sequence": "QVHLVESGGGLVQAGGSLRLSCAASGFIFYYYAMGWYRQAPGKERELFARISRRGGSTYYADSVKGRFTISRDNAKNTVYLQMNSLKPEDTAVYYCAAVYLVYYGVSDMDYWGQGTKVTVSS", "polyreactivity (PSR sort gate)": "high polyreactivity"}, {"sequence": "QVHLVESGGGLVQAGGSLRLSCAASGFNLLPYALGWYRQAQGKERELVATINSGDSTYADSVKGRFTISRDNAKNTVYLQMNSLKPEDTAVYYCNAYWLVVPVDLDYWGQGTQVTVSS", "polyreactivity (PSR sort gate)": "low polyreactivity"}, {"sequence": "QVHLVESGGGLVQAGGSLRLSCAASGFTFGINAMGWYRQAPGKERELVAAINQSGDRTYYADSVKGRFTISRDNAKNPVYLELNSLKPDDTAVYYCAADTSYWYDYYIDYVGYYYWGQGTQVTVSS", "polyreactivity (PSR sort gate)": "high polyreactivity"}]}]}
